# T1: activin B (Homo sapiens, UniProt P09529)
# T1 sequence (P09529 293-407): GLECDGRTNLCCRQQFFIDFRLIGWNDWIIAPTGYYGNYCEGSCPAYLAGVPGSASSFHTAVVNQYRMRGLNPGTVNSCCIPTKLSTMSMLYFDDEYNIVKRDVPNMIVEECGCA
# T2: GDF8 (Homo sapiens, UniProt O14793)
# T2 sequence (O14793 267-375): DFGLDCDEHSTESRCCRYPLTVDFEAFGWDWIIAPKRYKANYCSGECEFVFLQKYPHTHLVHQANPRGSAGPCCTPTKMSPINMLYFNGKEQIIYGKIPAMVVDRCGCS
# T3: BMP9 (Homo sapiens, UniProt Q9UK05)
# T3 sequence (Q9UK05 320-429): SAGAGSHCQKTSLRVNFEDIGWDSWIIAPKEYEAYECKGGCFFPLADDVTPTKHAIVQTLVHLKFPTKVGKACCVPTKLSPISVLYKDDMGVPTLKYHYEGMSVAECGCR
# T4: BMP6 (Homo sapiens, UniProt P22004)
# T4 sequence (P22004 375-513): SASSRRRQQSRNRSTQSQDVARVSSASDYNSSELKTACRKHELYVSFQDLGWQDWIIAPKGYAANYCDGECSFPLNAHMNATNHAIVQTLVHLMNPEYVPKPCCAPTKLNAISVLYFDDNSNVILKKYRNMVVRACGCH
# T5: GDF11 (Homo sapiens, UniProt O95390)
# T5 sequence (O95390 299-407): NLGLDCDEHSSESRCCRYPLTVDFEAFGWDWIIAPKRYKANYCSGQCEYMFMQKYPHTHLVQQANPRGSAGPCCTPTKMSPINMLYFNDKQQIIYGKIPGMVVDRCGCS
# T6: GDF3 (Homo sapiens, UniProt Q9NR23)
# T6 sequence (Q9NR23 251-364): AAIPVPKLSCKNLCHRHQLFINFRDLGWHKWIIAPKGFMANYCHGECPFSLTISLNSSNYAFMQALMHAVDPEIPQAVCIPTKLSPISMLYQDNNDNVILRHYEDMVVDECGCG
# T7: BMP10 (Homo sapiens, UniProt O95393)
# T7 sequence (O95393 317-424): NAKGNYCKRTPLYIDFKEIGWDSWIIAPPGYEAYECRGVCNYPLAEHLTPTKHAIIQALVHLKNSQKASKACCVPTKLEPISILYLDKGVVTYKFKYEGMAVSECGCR
# T8: activin A (Homo sapiens, UniProt P08476)
# T8 sequence (P08476 311-426): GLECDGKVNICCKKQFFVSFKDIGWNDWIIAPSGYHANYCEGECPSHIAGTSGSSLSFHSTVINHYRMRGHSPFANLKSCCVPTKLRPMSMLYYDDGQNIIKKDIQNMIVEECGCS
# B1: ActRIIB-Fc homodimer: homodimer complex of ActRIIB-Fc fusion polypeptide (protein)
# chain: GRGEAETRECIYYNANWELERTNQSGLERCEGEQDKRLHCYASWRNSSGTIELVKKGCWLDDFNCYDRQECVATEENPQVYFCCCEGNFCNERFTHLPEAGGPEVTYEPPPTAPT
# modifications: left off: a dimerising Fc or GST
# notes: homodimer complex of ActRIIB-Fc fusion polypeptide
# B2: ActRIIB(20-119)-Fc: ActRIIB-Fc fusion protein containing amino acids 20-119 of SEQ ID NO: 1 (protein)
# chain: GRGEAETRECIYYNANWELERTNQSGLERCEGEQDKRLHCYASWRNSSGTIELVKKGCWLDDFNCYDRQECVATEENPQVYFCCCEGNFCNERFTHLPEA
# modifications: Fc fusion, Fc no entry
# B3: ActRIIB(20-134)-hFc: extracellular domain of human ActRIIB (20-134, R64) fused to a human Fc domain with a minimal linker (SEQ ID NO: 40) (protein)
# chain: GRGEAETRECIYYNANWELERTNQSGLERCEGEQDKRLHCYASWRNSSGTIELVKKGCWLDDFNCYDRQECVATEENPQVYFCCCEGNFCNERFTHLPEAGGPEVTYEPPPTAPTGGGTHTCPPCPAPELLGGPSVFLFPPKPKDTLMISRTPEVTCVVVDVSHEDPEVKFNWYVDGVEVHNAKTKPREEQYNSTYRVVSVLTVLHQDWLNGKEYKCKVSNKALPVPIEKTISKAKGQPREPQVYTLPPSREEMTKNQVSLTCLVKGFYPSDIAVEWESNGQPENNYKTTPPVLDSDGSFFLYSKLTVDKSRWQQGNVFSCSVMHEALHNHYTQKSLSLSPGK
# Tests used:
# [1] = pharmacokinetic studies in rats; format: in vivo, rat; conditions: initial administration 30 mg/kg
# Protocol: The ActRIIA-hFc was very stable in pharmacokinetic studies. Rats were dosed with 1 mg/kg, 3 mg/kg, or 10 mg/kg of ActRIIA-hFc protein, and plasma levels of the protein were measured at 24, 48, 72, 144 and 168 hours. In a separate study, rats were dosed at 1 mg/kg, 10 mg/kg, or 30 mg/kg.
# activin B [2] = target: T1, activin B; test: similar binding assay (Biacore); conditions: CHO-cell-expressed material
# [3] = pharmacokinetics in cynomolgus monkeys; format: in vivo, cynomolgus monkey; conditions: initial administration 10 mg/kg
# GDF8 [4] = target: T2, GDF8; test: A-204 reporter gene assay, pGL3(CAGA)12 luciferase; format: cell-based; design: host or cells: exogenous factor added to A-204 cells (human rhabdomyosarcoma)
# From the text: (§1) Day 1: Split A-204 cells into 48-well plate. […]
# (§2) In addition, an A-204 Reporter Gene Assay was used to evaluate the effects of ALK4-Fc:ActRIIB-Fc heterodimer and ActRIIB-Fc:ActRIIB-Fc homodimer on signaling by activin A, activin B, GDF11, GDF8, BMP10, and BMP9. Cell line: Human Rhabdomyosarcoma (derived from muscle). Reporter vector: pGL3(CAGA)12 (as described in Dennler et al, 1998, EMBO 17: 3091-3100). The CAGA12 motif is present in TGFβ responsive genes (PAI-1 gene), so this vector is of general use for factors signaling through Smad2 and 3. An exemplary A-204 Reporter Gene Assay is outlined below. • Day 1: Split A-204 cells into 48-well plate. • Day 2: A-204 cells transfected with 10 ug pGL3(CAGA)12 or pGL3(CAGA)12(10 ug)+pRLCMV (1 ug) and Fugene. • Day 3: Add factors (diluted into medium+0.1% BSA). Inhibitors need to be pre-incubated with Factors for about one hr before adding to cells. About six hrs later, cells are rinsed with PBS and then lysed.
# (§3) Following the above steps, a Luciferase assay was performed.
# activin B [5] = target: T1, activin B; test: Biacore-based binding assay, receptor captured with anti-Fc antibody
# Protocol: (§4) A Biacore™-based binding assay was used to compare ligand binding selectivity of the ALK4-Fc:ActRIIB-Fc heterodimeric complex described above with that of ActRIIB-Fc and ALK4-Fc homodimer complexes. The ALK4-Fc:ActRIIB-Fc heterodimer, ActRIIB-Fc homodimer, and ALK4-Fc homodimer were independently captured onto the system using an anti-Fc antibody. Ligands were injected and allowed to flow over the captured receptor protein. Results are summarized in the table below, in which ligand off-rates (kd) most indicative of effective ligand traps are denoted in bold font.
# BMP9 = target: T3, BMP9; test: as above
# Protocol: as §4
# BMP6 = target: T4, BMP6; test: as above
# Protocol: as §4
# GDF8 [6] = target: T2, GDF8; test: as above
# Protocol: as §4
# GDF11 [7] = target: T5, GDF11; test: as above
# Protocol: as §4
# GDF3 = target: T6, GDF3; test: as above
# Protocol: as §4
# BMP10 = target: T7, BMP10; test: as above
# Protocol: as §4
# activin A [8] = target: T8, activin A; test: as above
# Protocol: as §4
# activin B [9] = target: T1, activin B; test: A-204 reporter gene assay, pGL3(CAGA)12 luciferase; format: cell-based; design: host or cells: exogenous factor added to A-204 cells (human rhabdomyosarcoma); conditions: Example 13
# From the text: as §2, §3
# activin A [10] = target: T8, activin A; test: A-204 reporter gene assay, pGL3(CAGA)12 luciferase; format: cell-based
# From the text: An A-204 reporter gene assay was used to evaluate the effects of ActRIIB-Fc proteins and GDF traps on signaling by GDF-11 and activin A. Cell line: human rhabdomyosarcoma (derived from muscle). Reporter vector: pGL3(CAGA)12 (described in Dennler et al, 1998, EMBO 17: 3091-3100). The CAGA12 motif is present in TGF-beta responsive genes (e.g., PAI-1 gene), so this vector is of general use for factors signaling through SMAD2 and 3.
# Day 1: Split A-204 cells into 48-well plate.
# Day 2: A-204 cells transfected with 10 ug pGL3(CAGA)12 or pGL3(CAGA)12(10 ug)+pRLCMV (1 μg) and Fugene.
# Day 3: Add factors (diluted into medium+0.1% BSA). Inhibitors need to be preincubated with factors for 1 hr before adding to cells. Six hrs later, cells were rinsed with PBS and lysed.
# This is followed by a luciferase assay.
# as §2, §3
# GDF11 [11] = target: T5, GDF11; test: A-204 reporter gene assay, pGL3(CAGA)12 luciferase; format: cell-based
# From the text: as §1, §2, §3
# GDF11 [12] = target: T5, GDF11; conditions: see U.S. Pat. No. 7,842,663; cited from earlier work
# activin [13] = conditions: see U.S. Pat. No. 7,842,663; cited from earlier work
# GDF11 [14] = target: T5, GDF11; test: ActRIIB-Fc affinity for ligand (description); format: binding; conditions: ascertained by Applicants
# GDF8 [15] = target: T2, GDF8; test: Biacore assay, receptor captured with anti-hFc antibody; format: binding
# Protocol: (§5) Binding of certain ActRIIB-Fc proteins and GDF traps to ligands was tested in a Biacore assay.
# (§6) The ActRIIB-Fc variants or wild-type protein were captured onto the system using an anti-hFc antibody. Ligands were injected and flowed over the captured receptor proteins.
# GDF11 [16] = target: T5, GDF11; test: as above; format: binding
# Protocol: as §5, §6
# activin A [17] = target: T8, activin A; test: as above; format: binding
# Protocol: as §5, §6
# activin [18] = test: ActRIIB-Fc affinity for ligand (description); format: binding; conditions: ascertained by Applicants
molecule,measurement,setting,value
ActRIIA-hFc: extracellular domain of human ActRIIa fused to a human Fc domain with a minimal linker (SEQ ID NO: 32); homodimer,circulating levels of the drug after two weeks,[1],30 µg/mL
same,affinity for activin B ligand compared with that reported for ActRIIa-hFc expressed in human 293 cells,activin B [2],higher affinity
same,circulating levels of the drug,[3],30 µg/mL
B1,inhibition of GDF8 signaling,GDF8 [4]; Example 13,potent inhibitors
same,"ka, Activin B",activin B [5],5.1e+06 M⁻¹ s⁻¹
same,"kd, Activin B",activin B [5],0.0001 s⁻¹
same,Kd,BMP9,0.077 nM
same,"ka, BMP9",BMP9,1.4e+07 M⁻¹ s⁻¹
same,"kd, BMP9",BMP9,0.0011 s⁻¹
same,"ka, BMP6",BMP6,3.2e+07 M⁻¹ s⁻¹
same,"kd, BMP6",BMP6,0.0068 s⁻¹
same,"ka, GDF8",GDF8 [6],830000 M⁻¹ s⁻¹
same,"kd, GDF8",GDF8 [6],0.00023 s⁻¹
same,Kd,GDF8 [6]; † = very low signal,0.28 nM
same,"ka, GDF11",GDF11 [7],5e+07 M⁻¹ s⁻¹
same,"kd, GDF11",GDF11 [7],0.00011 s⁻¹
same,Kd,GDF11 [7]; † = very low signal,0.002 nM
same,Kd,GDF3,1.5 nM
same,"ka, GDF3",GDF3,1.4e+06 M⁻¹ s⁻¹
same,"kd, GDF3",GDF3,0.0022 s⁻¹
same,Kd,BMP10,0.011 nM
same,"ka, BMP10",BMP10,2.3e+07 M⁻¹ s⁻¹
same,"kd, BMP10",BMP10,0.00026 s⁻¹
same,"ka, Activin A",activin A [8],1.2e+07 M⁻¹ s⁻¹
same,"kd, Activin A",activin A [8],0.00023 s⁻¹
same,inhibition of activin B signaling,activin B [9],potent inhibitors
same,inhibition of activin A signaling,activin A [10]; Example 13,potent inhibitors
same,inhibition of GDF11 signaling,GDF11 [11]; Example 13,potent inhibitors
B2,binding to GDF11 relative to ActRIIB(20-134)-Fc,GDF11 [12],reduced binding
same,binding to activin relative to ActRIIB(20-134)-Fc,activin [13],reduced binding
B3,affinity for GDF11,GDF11 [14],low nanomolar to high picomolar range
same,inhibition of GDF-8 activity,GDF8 [4]; A-204 reporter gene assay,potent inhibitor
same,"Koff, GDF8",GDF8 [15],3.45e-05 s⁻¹
same,"Koff, GDF11",GDF11 [16],0.000113 s⁻¹
same,"Koff, Activin A",activin A [17],0.000159 s⁻¹
same,"Kon, Activin A",activin A [17],5.94e+06 M⁻¹ s⁻¹
same,affinity for activin,activin [18],low nanomolar to high picomolar range
same,inhibition of activin A activity,activin A [10]; A-204 reporter gene assay,potent inhibitor
same,inhibition of GDF-11 activity,GDF11 [11]; A-204 reporter gene assay,potent inhibitor

# Source: US10973880B2, “Compositions and methods for treating pulmonary hypertension” (Acceleron Pharma Inc., priority 2016, dated 2021)
